According to patent publication US20110039770A1, “INHIBITORS OF PROTEIN KINASE C ISOFORMS AND USES THEREOF” (PHARMAGAP INC., priority 2005, published 2011):
Where a SMILES comes first, the peptide text is derived from it. [ ]: non-standard residue; d: D form.

Molecular target: PKC-βI (Homo sapiens, UniProt P05771)
Assay: ELISA-based competitive binding assay with purified PKC isoform
Parameters: key to Affinity for PKC isoform βI: —: no detectable affinity; Low to very low affinity at 10X or 20X or both PRE concentrations in at least one cell line in the cell extract assay; Low affinity in purified isoform assay.; Moderate affinity at 10X or 20X or both PRE concentrations in at least one cell line in the cell extract assay.; High affinity at 10X or 20X or both PRE concentrations in at least one cell line in the cell extract assay; High affinity in purified isoform assay
Details: for Affinity for PKC isoform βI: Purified isoform
Description: Peptides PRE 1, 2, 3, 4, 5, 6, 7, 8, 9, 10, 11, 12 and 13 (see Table 3) were tested for their ability to interfere with binding of PKC isoform-specific antibodies to their target PKC isoforms using a competitive binding assay and purified PKC isoforms.
Procedure: Competitive binding was assessed using a 96 well plate ELISA-based assay as described below.
Greiner 96 well ELISA plates were coated with the appropriate PKC isoform diluted in PBSN (PBS with Calcium/Magnesium+0.05% Sodium azide w/w). 50 μL/well at 250 ng/mL was used. Control wells contained PBSN only. Plates were incubated overnight at 4° C.
The plates were washed 3 times with 200 μL of dH2O per well, then 100 μL of blocking solution was added per well and the plate incubated for 1 h at 37° C. The washing steps with dH2O were repeated and 50 μL of the appropriate PRE solution (PRE stock solution [20 mM in DMSO] diluted in PBSN) was added and the plate incubated for 1 h at room temperature.
After incubation, 5 μL of 1.1:400 anti-PKC (isoform specific antibody) was added per well (to provide a final concentration of 1:4000). For PKC-epsilon, 1.1:800 dilution was used and for PKC-zeta a 1.1:100 dilution was used due to high and low binding affinity, respectively. The plates were then incubated 1 h at room temperature, followed by washing with dH2O as described above.
50 μL of 1:1000 dilution of Alkaline Phosphatase (AP) conjugated antibody (anti-rabbit for all except zeta, which was anti-goat) was then added and the plate incubated for 1 h at room temperature. Washing with dH2O was then repeated. Finally, 100 μL of pNPP solution in pNPP buffer (2 mM MgCl2, 100 mM Sodium bicarbonate in water, pH 9.8) was added to all wells and incubated for 8 minutes for α, βI, βII ε, and ζ, or for 15-20 mins for δ (until sufficient coloration is observed). The reaction was stopped by addition of Stop solution (2N NaOH) and the absorbance at 405 nm was read on a Galaxy Plate reader.
Controls were PKC without PRE; blank controls, and controls containing the final concentrations of DMSO used for solubilizing the PREs. The non-specific binding capacity related to DMSO was also measured.
The antibodies used were as follows: anti-PKC α (Cat. No. SC-208); anti-PKC βI (Cat. No. SC-209); anti-PKC βII (Cat. No. SC-210); anti-PKC δ (Cat. No. SC-213); anti-PKC ε (Cat. No. SC-214); anti-PKC ζ (Cat. No. SC-216-G) (all from Santa Cruz Biotechnology, Inc.). The AP-conjugated antibodies were obtained from Jackson Immuno Research Laboratories (West Grove, Pa.).
Calculations: The OD values measured at 405 nm represent the free PKC coated per well.
OD405 PKC alone−Blank OD405 of each sample=OD405 coated isoform
(OD405 of sample X/OD405 coated isoform)×100=% n that represents the percentage of X binding compared to control.
100-% n measures the relative binding capacity of X towards the tested isoform.
The apparent binding capacity of the DMSO samples was then subtracted from X binding capacity.
All measurements were made in triplicate and the values in the table represent the averaged calculated binding capacity values after subtraction of the DMSO apparent binding capacity (averaged from 12 values, respectively 10.80, 11.20 and 16.40 corresponding to the concentrations of DMSO used to dilute the […] at 200, 100 and 50 μM respectively). The results allow for quantitative comparison of the binding capacity of each PRE towards an individual isoform within each table, but not among isoforms due to differences in sensitivity of the specific antibodies toward the secondary antibody. This applies particularly to PKC-delta. As noted above, the colour development duration was increased 2-3 times and, as a result, the OD405 measurements may be overestimated for this isoform.

PKC-βI, sequence (P05771 whole entry, canonical isoform): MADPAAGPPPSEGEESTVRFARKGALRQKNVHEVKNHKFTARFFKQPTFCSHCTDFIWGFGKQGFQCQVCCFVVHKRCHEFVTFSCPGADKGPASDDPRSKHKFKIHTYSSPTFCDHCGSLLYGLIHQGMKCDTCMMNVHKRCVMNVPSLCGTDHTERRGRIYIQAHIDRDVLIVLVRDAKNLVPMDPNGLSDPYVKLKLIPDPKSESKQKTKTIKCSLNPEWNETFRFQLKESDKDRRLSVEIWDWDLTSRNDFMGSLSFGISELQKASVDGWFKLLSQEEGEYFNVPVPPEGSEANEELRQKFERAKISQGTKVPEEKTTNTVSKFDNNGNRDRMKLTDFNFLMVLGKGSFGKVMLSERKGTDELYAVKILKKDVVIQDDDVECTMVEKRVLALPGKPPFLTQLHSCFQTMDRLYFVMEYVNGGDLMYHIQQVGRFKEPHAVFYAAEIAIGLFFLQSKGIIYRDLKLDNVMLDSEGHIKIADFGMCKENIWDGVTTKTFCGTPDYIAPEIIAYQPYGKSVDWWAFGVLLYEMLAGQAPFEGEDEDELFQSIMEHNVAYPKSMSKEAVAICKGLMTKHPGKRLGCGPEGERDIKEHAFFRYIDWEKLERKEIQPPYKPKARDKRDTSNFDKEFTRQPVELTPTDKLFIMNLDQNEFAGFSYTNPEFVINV

Compound	Affinity for PKC isoform βI	further results
Ac-ISIGILQNADK-NH2 (not fully specified; printed as Ac-ISIGILQNADK-NH2) [PRE 7]	—	calculated binding capacity (100-% n, DMSO apparent binding subtracted) (PRE 50 μM, purified PKC-βI): 2.10%
RRKKGGKDFVVKR [PRE 1]	H	
Ac-RDAQNLI-NH2 [PRE 13]	—	
Ac-ISIGILNQADK-NH2 [PRE 10]	—	
CC[C@H](C)[C@H](NC(=O)[C@H](CO)NC(=O)[C@@H](NC(=O)CNC(=O)[C@@H](NC(=O)[C@H](CC(C)C)NC(=O)[C@H](CC(N)=O)NC(=O)[C@H](CCC(N)=O)NC(=O)[C@H](C)NC(=O)[C@H](CC(=O)O)NC(=O)[C@H](CCCCN)NC(C)=O)[C@@H](C)CC)[C@@H](C)CC)C(N)=O [PRE 4, Ac-KDAQNLIGISI-NH2] (Ac-KDAQNLIGISI-NH2)	L	
CC[C@H](C)[C@H](NC(=O)[C@H](CO)NC(=O)[C@@H](NC(=O)CNC(=O)[C@@H](NC(=O)[C@H](CC(C)C)NC(=O)[C@H](CC(N)=O)NC(=O)[C@H](CCC(N)=O)NC(=O)[C@H](C)NC(=O)[C@H](CC(=O)O)NC(=O)CNC(=O)CNC(=O)[C@H](CCCCN)NC(=O)[C@@H](NC(=O)[C@H](CCC(=O)O)NC(=O)[C@H](CCC(N)=O)NC(=O)[C@@H](NC(=O)CNC(=O)[C@H](CCCCN)NC(=O)[C@H](C)NC(C)=O)[C@@H](C)CC)C(C)C)[C@@H](C)CC)[C@@H](C)CC)C(N)=O [PRE 3] (Ac-AKGIQEVKGGDAQNLIGISI-NH2)	H	
CC[C@H](C)[C@H](NC(=O)[C@H](CO)NC(=O)[C@@H](NC(=O)CNC(=O)[C@@H](NC(=O)[C@H](CC(C)C)NC(=O)[C@H](CC(N)=O)NC(=O)[C@H](CCC(N)=O)NC(=O)[C@H](C)NC(=O)[C@H](CC(=O)O)NC(=O)[C@H](CCCCN)NC(=O)CNC(=O)CNC(=O)[C@H](CCCCN)NC(=O)[C@@H](NC(=O)[C@H](CCC(=O)O)NC(=O)[C@H](CCC(N)=O)NC(=O)[C@@H](NC(=O)CNC(=O)[C@H](CCCCN)NC(=O)[C@H](C)NC(C)=O)[C@@H](C)CC)C(C)C)[C@@H](C)CC)[C@@H](C)CC)C(N)=O [PRE 5] (Ac-AKGIQEVKGGKDAQNLIGISI-NH2)	—	inhibition at 50 µM (PRE 50 μM, purified PKC-βI, read-out: calculated binding capacity (100-% n, DMSO apparent binding subtracted)): 0%; inhibition at 100 µM (PRE 100 μM, purified PKC-βI, read-out: calculated binding capacity (100-% n, DMSO apparent binding subtracted)): 0%; inhibition at 200 µM (PRE 200 μM, purified PKC-βI, read-out: calculated binding capacity (100-% n, DMSO apparent binding subtracted)): 0%
Ac-isigilqnadk-NH2 (Ac-[dI][dS][dI]G[dI][dL][dQ][dN][dA][dD][dK]-NH2; SMILES CC[C@@H](C)[C@@H](NC(C)=O)C(=O)N[C@H](CO)C(=O)N[C@@H](C(=O)NCC(=O)N[C@@H](C(=O)N[C@H](CC(C)C)C(=O)N[C@H](CCC(N)=O)C(=O)N[C@H](CC(N)=O)C(=O)N[C@H](C)C(=O)N[C@H](CC(=O)O)C(=O)N[C@H](CCCCN)C(N)=O)[C@H](C)CC)[C@H](C)CC) [PRE 9]	L	calculated binding capacity (100-% n, DMSO apparent binding subtracted) (PRE 50 μM, purified PKC-βI): 11.53%; calculated binding capacity (100-% n, DMSO apparent binding subtracted) (PRE 100 μM, purified PKC-βI): 8.82%; calculated binding capacity (100-% n, DMSO apparent binding subtracted) (PRE 200 μM, purified PKC-βI): 5.72%
ILEDKGGDAQNLIGISI [PRE 8]	—	
Ac-RDAQNLIGISI-NH2 [PRE 11]	—	
Ac-KDANQLIGISI-NH2 [PRE 6]	L	
Ac-KDAQNLI-NH2 [PRE 12]	—	
